# The supplement of paper PMC5998384
# How the values were obtained:
# HeLa Kyoto [1] = experiment: solubility in G1/S (NP-40 vs SDS abundance) (log2 ratio); higher = more soluble; settings: cell cycle stage: G1/S
# HeLa Kyoto [2] = experiment: melting temperature (median over replicates), in situ; higher = more thermally stable
# HeLa Kyoto [3] = experiment: solubility change mitosis vs G1/S (difference of NP-40 vs SDS log2 ratios) (log2 ratio difference); higher = more soluble in mitosis
# HeLa Kyoto [4] = experiment: thermal stability score vs G1/S (z-score of summed log2 fold changes over temperatures); higher = more thermally stable than in G1/S
# [5] = cell cycle stage: early G1 (4.5 h after nocodazole release)
# 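Throughout, for melting temperature (median over replicates), in situ: HeLa Kyoto cells synchronized by double thymidine or nocodazole block, proteins quantified by TMT10plex mass spectrometry, three independent biological replicates.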
# 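Throughout, for solubility change mitosis vs G1/S (difference of NP-40 vs SDS log2 ratios): synchronized HeLa Kyoto cells (double thymidine block for G1/S, nocodazole release for mitosis), protein amounts in NP-40 versus SDS lysates quantified by mass spectrometry, three biological replicates.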
# 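Throughout, for solubility in G1/S (NP-40 vs SDS abundance): HeLa Kyoto cells arrested at G1/S by double thymidine block, proteins quantified by TMT10plex mass spectrometry in mild NP-40 versus SDS extracts, three biological replicates.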
# 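Throughout, for thermal stability score vs G1/S (z-score of summed log2 fold changes over temperatures): synchronized HeLa Kyoto cells, proteins quantified by TMT10plex mass spectrometry, three biological replicates, mitosis taken 0.5 h after nocodazole release, G1/S directly after double thymidine block.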
Substance,solubility in G1/S (log2) (HeLa Kyoto [1]),melting temperature (HeLa Kyoto [2]; cell cycle stage: G1/S),solubility change mitosis (log2) (HeLa Kyoto [3]),thermal stability score (HeLa Kyoto [4]; [5]),thermal stability score (HeLa Kyoto [4]; cell cycle stage: mitosis),melting temperature (HeLa Kyoto [2]; cell cycle stage: mitosis)
MAMARLGSWLGEAQWLALVSLFVAALATVGLYLAQWALARARPQPQRRAVEPGEGPRPGSDALLSWILTLGSWRSQWQAAWVTALNEEAERKGGPPFLSFEEDPRQQALELVVQEVSSVLRSAEEKVVVCHVVGQAIQFLVSETPALGAGCRLYDMRLSPFHLQLEFHMKEKREDLQISWSFISVPEMAVNIQPKALGEDQVAETSAMSDVLKDILKHLAGSASPSVVLITKPTTVKEAQNLQCAASTAQESCPPKPPRAHELKLLVRNIHVLLLSEPGASGHINAVCVVQLNDPVQRFSSTLTKNTPDLMWEEEFTFELNAKSKELHLQISEAGRSSEGLLATATVPLDLFKKQPSGPQSFTLTSGSACGSSVLGSVTAEFSYMEPGELKSWPIPPPVPAAKIEKDRTVMPCGTVVTTVTAVKTKPRVDVGRASPLSSDSPVKTPIKVKVIEKDISVQAIACRSAPVSKTLSSSDTELLVLNGSDPVAEVAIRQLSESSKLKLKSPRKKSTIIISGISKTSLSQDHDAALMQGYTASVDSTHQEDAPSHPERAAASAPPEEAESAQASLAPKPQEDELDSWDLEKEPQAAAWSSQVLLDPDGDELSESSMSVLEPGTAKKHKGGILRKGAKLFFRRRHQQKDPGMSQSHNDLVFLEQPEGSRRKGITLTRILNKKLLSRHRNKNTMNGAPVEPCT [C2CD2],0.0136,50.9 °C,0.0576,0.427,1.24,–
NCAPD3,-0.316,48.4 °C,-0.0894,0.362,0.667,49.8 °C
MERFRLEKKLPGPDEEAVVDLGKTSSTVNTKFEKEELESHRAVYIGVHVPFSKESRRRHRHRGHKHHHRRRKDKESDKEDGRESPSYDTPSQRVQFILGTEDDDEEHIPHDLFTEMDELCYRDGEEYEWKETARWLKFEEDVEDGGDRWSKPYVATLSLHSLFELRSCILNGTVMLDMRASTLDEIADMVLDNMIASGQLDESIRENVREALLKRHHHQNEKRFTSRIPLVRSFADIGKKHSDPHLLERNGEGLSASRHSLRTGLSASNLSLRGESPLSLLLGHLLPSSRAGTPAGSRCTTPVPTPQNSPPSSPSISRLTSRSSQESQRQAPELLVSPASDDIPTVVIHPPEEDLEAALKGEEQKNEENVDLTPGILASPQSAPGNLDNSKSGEIKGNGSGGSRENSTVDFSKVDMNFMRKIPTGAEASNVLVGEVDFLERPIIAFVRLAPAVLLTGLTEVPVPTRFLFLLLGPAGKAPQYHEIGRSIATLMTDEIFHDVAYKAKDRNDLLSGIDEFLDQVTVLPPGEWDPSIRIEPPKSVPSQEKRKIPVFHNGSTPTLGETPKEAAHHAGPELQRTGRLFGGLILDIKRKAPFFLSDFKDALSLQCLASILFLYCACMSPVITFGGLLGEATEGRISAIESLFGASLTGIAYSLFAGQPLTILGSTGPVLVFEKILYKFCRDYQLSYLSLRTSIGLWTSFLCIVLVATDASSLVCYITRFTEEAFAALICIIFIYEALEKLFDLGETYAFNMHNNLDKLTSYSCVCTEPPNPSNETLAQWKKDNITAHNISWRNLTVSECKKLRGVFLGSACGHHGPYIPDVLFWCVILFFTTFFLSSFLKQFKTKRYFPTKVRSTISDFAVFLTIVIMVTIDYLVGVPSPKLHVPEKFEPTHPERGWIISPLGDNPWWTLLIAAIPALLCTILIFMDQQITAVIINRKEHKLKKGAGYHLDLLMVGVMLGVCSVMGLPWFVAATVLSISHVNSLKVESECSAPGEQPKFLGIREQRVTGLMIFILMGLSVFMTSVLKFIPMPVLYGVFLYMGVSSLKGIQLFDRIKLFGMPAKHQPDLIYLRYVPLWKVHIFTVIQLTCLVLLWVIKVSAAAVVFPMMVLALVFVRKLMDLCFTKRELSWLDDLMPESKKKKEDDKKKKEKEEAERMLQDDDDTVHLPFEGGSLLQIPVKALKYSPDKPVSVKISFEDEPRKKYVDAETSL [SLC4A7],-0.196,54.4 °C,0.0133,-0.753,1.69,53.6 °C
MAEQLSPGKAVDQVCTFLFKKPGRKGAAGRRKRPACDPEPGESGSSSDEGCTVVRPEKKRVTHNPMIQKTRDSGKQKAAYGDLSSEEEEENEPESLGVVYKSTRSAKPVGPEDMGATAVYELDTEKERDAQAIFERSQKIQEELRGKEDDKIYRGINNYQKYMKPKDTSMGNASSGMVRKGPIRAPEHLRATVRWDYQPDICKDYKETGFCGFGDSCKFLHDRSDYKHGWQIERELDEGRYGVYEDENYEVGSDDEEIPFKCFICRQSFQNPVVTKCRHYFCESCALQHFRTTPRCYVCDQQTNGVFNPAKELIAKLEKHRATGEGGASDLPEDPDEDAIPIT [RNF113A],0.17,55.6 °C,0.0489,-3.12,-4.15,63.5 °C
MLSSTDFTFASWELVVRVDHPNEEQQKDVTLRVSGDLHVGGVMLKLVEQINISQDWSDFALWWEQKHCWLLKTHWTLDKYGVQADAKLLFTPQHKMLRLRLPNLKMVRLRVSFSAVVFKAVSDICKILNIRRSEELSLLKPSGDYFKKKKKKDKNNKEPIIEDILNLESSPTASGSSVSPGLYSKTMTPIYDPINGTPASSTMTWFSDSPLTEQNCSILAFSQPPQSPEALADMYQPRSLVDKAKLNAGWLDSSRSLMEQGIQEDEQLLLRFKYYSFFDLNPKYDAVRINQLYEQARWAILLEEIDCTEEEMLIFAALQYHISKLSLSAETQDFAGESEVDEIEAALSNLEVTLEGGKADSLLEDITDIPKLADNLKLFRPKKLLPKAFKQYWFIFKDTSIAYFKNKELEQGEPLEKLNLRGCEVVPDVNVAGRKFGIKLLIPVADGMNEMYLRCDHENQYAQWMAACMLASKGKTMADSSYQPEVLNILSFLRMKNRNSASQVASSLENMDMNPECFVSPRCAKRHKSKQLAARILEAHQNVAQMPLVEAKLRFIQAWQSLPEFGLTYYLVRFKGSKKDDILGVSYNRLIKIDAATGIPVTTWRFTNIKQWNVNWETRQVVIEFDQNVFTAFTCLSADCKIVHEYIGGYIFLSTRSKDQNETLDEDLFHKLTGGQD [FERMT1],-0.0778,50.2 °C,-0.199,-0.277,-0.501,49.8 °C
